The record followed here is article PMC11708414.

The test deals with heavy mero-myosin (HMM) (rabbit).

In turn, “R312H cardiac actin variant (R312H-ACTC) (natural protein)” came in with an unregulated myosin ATPase: KM for ACTC protein, 2 mM ATP of 24.8 µM. The substance “R312C cardiac actin variant (R312C-ACTC) (natural protein)” registered an unregulated myosin ATPase: KM for ACTC protein, 2 mM ATP of 16.6 µM. “wildtype cardiac actin (WT-ACTC) (from UniProt P68032 1-377) (natural protein)”: the unregulated myosin ATPase: KM for ACTC protein, 2 mM ATP was determined as 5.63 µM.
